The source of these data is patent EP4653461A1 (DE NOVO BIOTHERAPEUTICS CO., LTD., dated 2025).

Read-outs that look alike come from different tables or passages of the source.

In assay [1] the target is T1, 6506GJ130-1A: Human NKP46 Recombinant Protein (His) (human, UniProt O76036 22-258, limits assumed).
T1 construct: also called human NKp46 protein; not shown: His tag
Nature of the assay: SPR, Biacore 8K, antibody captured on Protein A chip, NKp46 as analyte. In general terms: Surface plasmon resonance follows binding to a sensor surface in real time, without labels.

Assay [2] deals with T1, 6506GJ130-1A: Human NKP46 Recombinant …. The description is as above. The source holds these as a separate data set.
Assay [3] has the same target. Nature of the assay: SPR, Biacore 8K; reference 2-3.
Assay [4] has the same target. The assay can be described thus: competition ELISA, NKp46-His coated; competitor 2-10 at 20 ug/ml. For orientation: In an ELISA, binding on a coated surface is turned into a signal by an enzyme label.
Assay [5] shares this target. Nature of the assay: competition ELISA, NKp46-His coated; competitor 2-2 at 20 ug/ml.
Assay [6] has the same target. Nature of the assay: competition ELISA, NKp46-His coated; competitor 2-1 at 20 ug/ml.
The target is the same in assay [7]. Nature of the assay: competition ELISA, NKp46-His coated; competitor 2-7 at 20 ug/ml.
Assay [8] has the same target. Nature of the assay: competition ELISA, NKp46-His coated; competitor 2-5 at 20 ug/ml.
Assay [9] shares this target. The assay can be described thus: competition ELISA, NKp46-His coated; no competitor (Control).
Assay [10] shares this target. The assay can be described thus: competition ELISA, NKp46-His coated; competitor 1-2 at 20 ug/ml.
For assay [11] the target is unchanged. The assay can be described thus: competition ELISA, NKp46-His coated; competitor 1-10 at 20 ug/ml.
For assay [12] the target is unchanged. Nature of the assay: competition ELISA, NKp46-His coated; competitor 1-8 at 20 ug/ml.
The target is the same in assay [13]. The assay can be described thus: competition ELISA, NKp46-His coated; competitor 2-3 at 20 ug/ml.
The target is the same in assay [14]. The assay can be described thus: competition ELISA, NKp46-His coated; competitor 1-4-2 at 20 ug/ml.
The target is the same in assay [15]. The assay can be described thus: SPR, Biacore 8K; reference 1-2.
Assay [16] shares this target. Nature of the assay: SPR, Biacore 8K; reference 2-5.

T1 sequence (O76036 22-258 limits assumed): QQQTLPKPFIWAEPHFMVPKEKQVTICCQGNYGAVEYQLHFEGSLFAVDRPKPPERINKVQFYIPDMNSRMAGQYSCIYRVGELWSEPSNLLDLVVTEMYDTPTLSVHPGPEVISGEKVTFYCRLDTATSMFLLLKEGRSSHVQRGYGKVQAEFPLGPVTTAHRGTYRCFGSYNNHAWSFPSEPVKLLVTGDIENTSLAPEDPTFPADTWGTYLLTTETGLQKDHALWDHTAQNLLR

B1: Hu 2-3 (antibody, V domains shown)
VH: QVQLVQSGAEVKKPGASVKVSCKASGYTFTSYWMNWVRQAPGQGLEWIGMIHPNSDITNYNEKFKSRVTMTVDTSTSTVYMELSSLRSEDTAVYYCARHGRFDYWGQGTTVTVSS
VL: DIQMTQSPSSLSASVGDRVTITCRASQDIGSSLNWLQQKPGKAPKRLIYATSSLDAGVPKRFSGSGSGTDYTLTISSLQPEDFATYYCLQYASSPFTFGGGTKLEIK
notes: Humanized form of 2-3; also called humanized 2-3
With B1, the Kd in assay [1] was in the range of 0.42 to 8.7 nM. Moreover, in assay [2], the Kd was 0.421 nM, the koff came to 0.000138 s⁻¹ and the on-rate (kon) amounted to 328000 M⁻¹ s⁻¹. In addition, the “fold change of KD against the unhumanized antibody” value (“fold change of KD” for short) in assay [3] is not above 2 fold.

B2: u6506gj130-1-2 (1-2) (antibody, IgG4, V domains shown)
VH: EVQLQQSGPELVKPGASVKISCQASGYTFTDYYLNWVKQSHGKSLEWIGDIDPHNGGTSYNQKFKDKATLTVDKSSSTAYMELRSLTSEDSAVYYCARFPIYYSGSSPMDYWGQGTSVTVSS
VL: DIQMTQSPASLSASVGETVTITCRTNENIFSYLAWYQQKQGKSPQLLVYNAKTLAEGVPSRFSGSASGTQFSLKINTLQPEDFGSYYCQHHYGTPYTFGGGTKLEII
notes: Beacon screening clone; made as mouse/human chimeric IgG4 (mouse variable regions, human constant region)
As for B2, the ELISA signal in [4] stood at 1.24; in [5], 1.23; in [6] it was 1.24; in assay [7], 1.15; in assay [8] it was 1.46; in [9] it was 1.54. Moreover, the ELISA signal in assay [10] was found to be 0.1; in assay [11] it was 1.19; in assay [12], 1.63; in assay [13], 1.28; in assay [14], 0.178. For the same molecule, the equilibrium dissociation constant (Kd) in assay [2] was determined as 4.29 nM. In assay [2], the dissociation rate constant (koff) was 0.00012 s⁻¹. Also, the kon in [2] came out at 27900 M⁻¹ s⁻¹.

B3: Hu 1-2 (antibody, V domains shown)
VH: QVQLVQSGAEVKKPGASVKVSCKASGYTFTDYYLNWVRQAPGQGLEWIGDIDPHNAGTSYNQKFKDRVTMTVDTSTSTVYMELSSLRSEDTAVYYCARFPIYYSGSSPMDYWGQGTLVTVSS
VL: DIQMTQSPSSLSASVGDRVTITCRTNENIFSYLAWYQQKPGKAPKLLIYNAKTLAEGVPSRFSGSGSGTDFTLTISSLQPEDFATYYCQHHYGTPYTFGGGTKLEIK
notes: Humanized form of 1-2; also called humanized 1-2
As for B3, the Kd in [1] was 0.42 to 8.7 nM. For the same molecule, the “fold change of KD” value in assay [15] is not above 2 fold. In assay [2], the Kd was 8.66 nM, the koff worked out at 0.000118 s⁻¹ and the association rate constant (kon) turned out to be 13700 M⁻¹ s⁻¹.

B4: 28E10B12 (2-3) (antibody, IgG4, V domains shown)
VH: QVQLQQPGAELVKPGASVKLSCKASGYTFTSYWMNWVKQRPGQGLEWIGMIHPNSDITNYNEKFKSQATLTVDKSSSTAYMQLSSLTSEDSAVYYCARHGRFDYWGQGTTLTVSS
VL: DIQMTQSPSSLSASLGERVTLTCRASQDIGSSLNWLQQEPDGTIKRLIYATSSLDSGVPKRFSGSRSGSDYSLTISSLESEDFVDYYCLQYASSPFTFGSGTKLEIK
notes: Hybridoma clone; made as mouse/human chimeric IgG4
In the case of B4, the ELISA signal was determined as 0.173 in assay [4]; 0.16 in assay [5]; 0.649 in [6]; 0.2 in assay [7]; 1.43 in assay [8]; 1.38 in [9]. Moreover, the ELISA signal was 1.24 in assay [10]; 0.408 in assay [11]; 1.43 in [12]; 0.105 in assay [13]; 1.09 in assay [14]. Besides, the dissociation constant (Kd) in assay [1] is 0.24 to 30 nM; in assay [2] it was 0.244 nM. The off-rate (koff) in assay [2] was determined as 0.000136 s⁻¹. In addition, in [2], the kon stood at 555000 M⁻¹ s⁻¹.

B5: 8A10C11 (2-7) (antibody, IgG4, V domains shown)
VH: QVQLQQPGAELVKPGASVKLSCKASGFTFTNYWMHWVKQRPGQGLEWIGMIHPNSGSTNYNEKFKSKATLTVDKSSSTAYMQLSSLTSEDSAVYYCAGGGRLDYWGQGTTLTVSS
VL: DIQMTQSPSSLSASLGERVSLTCRASQDIGSSLNWLQQEPDGTIKRLIYATSSLDSGVPKRFSGSRSGSDYSLTISSLESEDFVDYYCLQYASSPFTFGSGTKLEIK
notes: as for B4
Regarding B5, the ELISA signal stood at 0.106 in assay [4]; 0.088 in assay [5]; 0.204 in assay [6]; 0.093 in assay [7]; 1.24 in assay [8]; 1.41 in [9]. The ELISA signal in [10] was 1.1; in assay [11] it was 0.133; in [12], 1.4; in assay [13], 0.146; in assay [14], 0.637. In addition, the equilibrium dissociation constant (Kd) in assay [2] was found to be 2.78 nM. The koff in [2] came to 0.00142 s⁻¹. In assay [2], the kon is 511000 M⁻¹ s⁻¹.

B6: Hu 2-5 (antibody, V domains shown)
VH: QVQLQESGPGLVKPSQTLSLTCTVSGYSITSDDYWNWIRQPPGKGLEWIGYISYEGSNNYNPSLKNRVTISRDTSKNQFSLKLSSVTAADTAVYYCARLGYPAMDAWGQGTLVTVSS
VL: DIQMTQSPSSLSASVGDRVTITCKASQDINSYLSWFQQKPGKAPKSLIYRANRLVDGVPSRFSGSGSGTDYTLTISSLQPEDFATYYCLQYDEFPWTFGGGTKLEIK
notes: Humanized form of 2-5; also called humanized 2-5
For B6, the “fold change of KD” value in assay [16] is not above 2 fold. For the same molecule, in [2], the dissociation constant (Kd) is 3.83 nM, the koff turned out to be 7.05e-05 s⁻¹ and the kon was 18400 M⁻¹ s⁻¹.

The Kd is the free concentration of one partner at which half of the binding sites on the other are occupied at equilibrium, for simple one-to-one binding. What is called koff is the rate constant with which the complex falls apart. The kon is a measure of how fast the partners come together.
